Measurements taken from the Immune Epitope Database (IEDB).

Assays:
HLA-A*01:01 [1] = experiment: IEDB peptide-MHC binding, purified MHC/competitive/fluorescence; ≥ and ≤ were set here for values at or beyond the usual limits of such assays; settings: source organism: Mus musculus
HLA-A*25:01 = experiment: as above; settings: source organism: Mus musculus
HLA-B*39:01 = experiment: IEDB peptide-MHC binding, purified MHC/competitive/fluorescence; filed as Kd, often an IC50 or EC50 that approximates it; ≥ and ≤ were set here for values at or beyond the usual limits of such assays; settings: source organism: Human immunodeficiency virus 1
HLA-A*02:03 [2] = experiment: as above
HLA-A*30:01 [3] = experiment: as above; settings: source organism: Human immunodeficiency virus 1
HLA-A*02:01 [4] = experiment: as above
HLA-A*26:01 = experiment: as above
HLA-A*26:03 = experiment: as above
HLA-A*02:06 [5] = experiment: as above
HLA-B*15:01 [6] = experiment: as above
HLA-A*30:01 [7] = experiment: IEDB peptide-MHC binding, purified MHC/competitive/radioactivity; filed as Kd, often an IC50 or EC50 that approximates it; ≥ and ≤ were set here for values at or beyond the usual limits of such assays; settings: source organism: Vaccinia virus WR
HLA-A*68:02 = experiment: IEDB peptide-MHC binding, purified MHC/direct/fluorescence; filed as Kd, often an IC50 or EC50 that approximates it; ≥ and ≤ were set here for values at or beyond the usual limits of such assays; settings: source organism: Camelpox virus M-96
HLA-B*48:01 = experiment: as above; settings: source organism: Camelpox virus M-96
HLA-B*46:01 = experiment: as above
HLA-B*58:01 = experiment: as above
HLA-B*07:02 = experiment: as above
HLA-A*31:01 = experiment: as above; settings: source organism: Camelpox virus M-96
HLA-B*08:02 = experiment: as above
HLA-B*15:17 = experiment: as above; settings: source organism: Camelpox virus M-96
HLA-A*03:01 = experiment: as above
HLA-A*69:01 = experiment: as above
HLA-A*11:01 = experiment: as above; settings: source organism: Camelpox virus M-96
HLA-B*40:01 = experiment: as above
HLA-A*01:01 [8] = experiment: IEDB peptide-MHC binding, purified MHC/competitive/fluorescence; filed as Kd, often an IC50 or EC50 that approximates it; ≥ and ≤ were set here for values at or beyond the usual limits of such assays; settings: source organism: Vaccinia virus WR
HLA-B*27:05 [9] = experiment: as above; settings: source organism: Vaccinia virus WR
HLA-A*26:02 = experiment: as above; settings: source organism: Vaccinia virus WR
HLA-B*57:01 = experiment: as above; settings: source organism: Vaccinia virus WR
HLA-B*35:01 = experiment: as above; settings: source organism: Vaccinia virus WR
HLA-A*80:01 = experiment: IEDB peptide-MHC binding, purified MHC/direct/fluorescence; filed as Kd, often an IC50 or EC50 that approximates it; ≥ and ≤ were set here for values at or beyond the usual limits of such assays
HLA-A*02:01 [10] = experiment: IEDB peptide-MHC binding, cellular MHC/competitive/fluorescence; ≥ and ≤ were set here for values at or beyond the usual limits of such assays; settings: source organism: Homo sapiens
HLA-A*01:01 [11] = experiment: IEDB peptide-MHC binding, purified MHC/direct/fluorescence; filed as Kd, often an IC50 or EC50 that approximates it; ≥ and ≤ were set here for values at or beyond the usual limits of such assays
HLA-A*30:01 [12] = experiment: as above; settings: source organism: Bacillus cereus NVH0597-99
HLA-A*02:03 [13] = experiment: as above; settings: source organism: Influenza A virus H3N2
HLA-A*02:01 [14] = experiment: as above; settings: source organism: Influenza A virus (A/Puerto Rico/8/34/Mount Sinai(H1N1))
HLA-B*27:05 [15] = experiment: as above; settings: source organism: Influenza A virus (A/turkey/Minnesota/1200/1980(H7N3))
HLA-A*02:11 = experiment: as above; settings: source organism: Influenza A virus H3N2
HLA-A*02:19 = experiment: as above; settings: source organism: Influenza A virus H3N2
HLA-A*24:02 = experiment: as above; settings: source organism: Influenza A virus (A/turkey/Minnesota/1200/1980(H7N3))
HLA-B*08:01 = experiment: as above; settings: source organism: Influenza A virus (A/turkey/Minnesota/1200/1980(H7N3))
HLA-B*44:02 = experiment: as above; settings: source organism: Influenza A virus (A/turkey/Minnesota/1200/1980(H7N3))
HLA-A*02:12 = experiment: as above; settings: source organism: Influenza A virus H3N2
HLA-A*02:06 [16] = experiment: as above; settings: source organism: Influenza A virus H3N2
HLA-B*15:01 [17] = experiment: as above; settings: source organism: Influenza A virus (A/turkey/Minnesota/1200/1980(H7N3))
[18] = source organism: Human immunodeficiency virus 1
[19] = source organism: Camelpox virus M-96
[20] = source organism: Vaccinia virus WR
[21] = source organism: Bacillus anthracis
[22] = source organism: Influenza A virus (A/turkey/Minnesota/1200/1980(H7N3))

Work on FSSCPVAY yielded an IC50 (HLA-A*01:01 [1]) of 1.94 µM and an IC50 (HLA-A*25:01) of at least 20 µM.
Sequence KLKSLYNTV has a Kd (HLA-B*39:01) of at least 20 µM, a Kd (HLA-A*02:03 [2]; [18]) of 0.0131 µM and a Kd (HLA-A*30:01 [3]) of 0.0013 µM. It also gave a Kd (HLA-A*02:01 [4]; [18]) of 0.0261 µM, a Kd (HLA-A*26:01; [18]) of at least 20 µM and a Kd (HLA-A*26:03; [18]) of at least 20 µM. For the same sequence, the Kd (HLA-A*02:06 [5]; [18]) was 0.0174 µM and the Kd (HLA-B*15:01 [6]; [18]) was at least 20 µM.
In the case of KVFDKSLLY, the Kd (HLA-A*30:01 [7]) is reported as 0.071 µM, the Kd (HLA-A*68:02) is reported as at least 20 µM and the Kd (HLA-B*48:01) is reported as at least 20 µM. The Kd (HLA-B*46:01; [19]) was at least 20 µM, the Kd (HLA-B*58:01; source organism: Variola virus) was 0.005 µM and the Kd (HLA-B*07:02; [19]) was at least 20 µM. For the same sequence, the Kd (HLA-A*31:01) was 2.76 µM, the Kd (HLA-B*08:02; source organism: Variola virus) was at least 20 µM and the Kd (HLA-B*15:17) was 0.0023 µM. For the same sequence, the Kd (HLA-A*03:01; [19]) was 0.035 µM, the Kd (HLA-A*69:01; [19]) was at least 20 µM and the Kd (HLA-A*11:01) was 0.004 µM. The Kd (HLA-B*40:01; [19]) was at least 20 µM, the Kd (HLA-A*01:01 [8]) was 2.48 µM and the Kd (HLA-A*02:03 [2]; [20]) was at least 20 µM. The Kd (HLA-A*02:01 [4]; [20]) was at least 20 µM, the Kd (HLA-B*27:05 [9]) was at least 20 µM and the Kd (HLA-A*26:01; [20]) was 1.75 µM. It also gave a Kd (HLA-A*26:03; [20]) of at least 20 µM, a Kd (HLA-A*26:02) of 1.99 µM and a Kd (HLA-A*02:06 [5]; [20]) of 3.1 µM. It also gave a Kd (HLA-B*57:01) of 0.424 µM, a Kd (HLA-B*35:01) of 0.0082 µM and a Kd (HLA-B*15:01 [6]; [20]) of 0.374 µM.
RVERIKSEY gave a Kd (HLA-A*80:01; source organism: Yellow fever virus) of 0.0338 µM.
SPSVDKARAEL gave an IC50 (HLA-A*02:01 [10]) of at least 200 µM.
Work on TTLRYPIGK yielded a Kd (HLA-A*01:01 [11]; [21]) of at least 20 µM, a Kd (HLA-A*30:01 [12]) of 0.081 µM and a Kd (HLA-A*80:01; [21]) of at least 20 µM.
Sequence VTTEVAFGL has a Kd (HLA-A*01:01 [11]; [22]) of at least 20 µM, a Kd (HLA-A*02:03 [13]) of 0.517 µM and a Kd (HLA-B*46:01; [22]) of at least 20 µM. The Kd (HLA-A*02:01 [14]) was 0.069 µM, the Kd (HLA-B*27:05 [15]) was at least 20 µM and the Kd (HLA-A*02:11) was at most 0.001 µM. The Kd (HLA-A*02:19) was 0.656 µM, the Kd (HLA-B*58:01; [22]) was 0.494 µM and the Kd (HLA-A*24:02) was at least 20 µM. It also gave a Kd (HLA-B*07:02; [22]) of at least 20 µM, a Kd (HLA-B*08:01) of at least 20 µM and a Kd (HLA-B*08:02; source organism: Influenza A virus H3N2) of at least 20 µM. It also gave a Kd (HLA-B*44:02) of at least 20 µM, a Kd (HLA-A*02:12) of 0.186 µM and a Kd (HLA-A*02:06 [16]) of at most 0.001 µM. It also gave a Kd (HLA-A*03:01; [22]) of at least 20 µM, a Kd (HLA-A*69:01; [22]) of at least 20 µM and a Kd (HLA-B*40:01; source organism: Influenza A virus (A/Puerto Rico/8/34/Mount Sinai(H1N1))) of 15 µM. For the same sequence, the Kd (HLA-B*15:01 [17]) was at least 20 µM.
